# Source: US20240425606A1, “ANTI-IL-11RA ANTIBODIES” (Lassen Therapeutics 1, Inc., priority 2021, published 2024)
# T1: hIL-1 IR (Homo sapiens, UniProt Q14626)
# T1 sequence (Q14626 23-422): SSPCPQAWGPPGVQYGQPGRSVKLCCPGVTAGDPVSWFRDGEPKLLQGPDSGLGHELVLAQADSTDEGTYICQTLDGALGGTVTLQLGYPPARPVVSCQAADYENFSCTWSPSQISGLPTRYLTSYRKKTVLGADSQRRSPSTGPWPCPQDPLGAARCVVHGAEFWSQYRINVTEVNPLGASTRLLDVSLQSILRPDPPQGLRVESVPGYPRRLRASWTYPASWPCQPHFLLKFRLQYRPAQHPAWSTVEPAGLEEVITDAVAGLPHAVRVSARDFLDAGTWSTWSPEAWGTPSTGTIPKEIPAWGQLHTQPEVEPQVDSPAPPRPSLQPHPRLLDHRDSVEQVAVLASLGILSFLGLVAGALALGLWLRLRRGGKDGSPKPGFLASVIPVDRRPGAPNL
# Molecular target: T1, hIL-1 IR
# Experiment: Alternate biolayer interferometry assay (AHC biosensors) ranking mAbs 16-32 against mAb5
# Format: binding
# Conditions: compared to mAb5
# Description: A further series of antibodies were designed in which the residue at Kabat position 31 of the heavy chain was varied (mAbs 16-32). In this case an alternate biolayer interferometry assay was used to initially rank the antibodies compared to mAb5, the closest relative in sequence to mAbs 16-32. MAbs were loaded onto anti-human constant domain (AHC) biosensors (FortdBio) in 10× kinetics buffer consisting of PBS, 0.1% BSA, 0.02% Tween 20 for 120 s to achieve a spectral shift value of 0.8 to 1.2 nm. Association was carried out in the presence of 2-fold dilution series of hIL-1 IR and was allowed to proceed for 120 s. Dilution series started 10 nM. The dissociation in 10× kinetics buffer for 1200 s. Binding kinetic measurements were taken on an Octet RED96e instrument.
row,Molecule,qualitative assessment
1,"mAb20: anti-IL-11Rα antibody; VH SEQ ID NO: 231, VL SEQ ID NO: 232; heavy chain Kabat position 31 variant of mAb5 (antibody, V domains shown, mAb20 VH Chain; mAb20 VL Chain, anti-IL-11Rα antibody; heavy chain Kabat position 31 variant of mAb5) VH: EVQLLESGGGLVQPGGSLRLSCAASGFTFSGYSMTWVRQAPGKGLEWVSSIVPYGDLTQYADSVKGRFTISRDNSKNTLYLQMNSLRAEDTAVYYCAKGPGWGSFDLWGRGTLVTVSS VL: DIQMTQSPSSLSASVGDRVTITCQASQDINNYLNWYQQKPGKAPKLLIYDASNLQTGVPSRFSGSGSGTDFTFTISSLQPEDIATYYCQQHESQSPTFGPGTKVDIK",similar
2,"mAb17: anti-IL-11Rα antibody; VH SEQ ID NO: 225, VL SEQ ID NO: 226; heavy chain Kabat position 31 variant of mAb5 (antibody, V domains shown, mAb17 VH Chain; mAb17 VL Chain, anti-IL-11Rα antibody; heavy chain Kabat position 31 variant of mAb5) VH: EVQLLESGGGLVQPGGSLRLSCAASGFTFSDYSMTWVRQAPGKGLEWVSSIVPYGDLTQYADSVKGRFTISRDNSKNTLYLQMNSLRAEDTAVYYCAKGPGWGSFDLWGRGTLVTVSS VL: DIQMTQSPSSLSASVGDRVTITCQASQDINNYLNWYQQKPGKAPKLLIYDASNLQTGVPSRFSGSGSGTDFTFTISSLQPEDIATYYCQQHESQSPTFGPGTKVDIK",decreased
3,"mAb22: anti-IL-11Rα antibody; VH SEQ ID NO: 235, VL SEQ ID NO: 236; heavy chain Kabat position 31 variant of mAb5 (antibody, V domains shown, mAb22 VH Chain; mAb22 VL Chain, anti-IL-11Rα antibody; heavy chain Kabat position 31 variant of mAb5) VH: EVQLLESGGGLVQPGGSLRLSCAASGFTFSIYSMTWVRQAPGKGLEWVSSIVPYGDLTQYADSVKGRFTISRDNSKNTLYLQMNSLRAEDTAVYYCAKGPGWGSFDLWGRGTLVTVSS VL: DIQMTQSPSSLSASVGDRVTITCQASQDINNYLNWYQQKPGKAPKLLIYDASNLQTGVPSRFSGSGSGTDFTFTISSLQPEDIATYYCQQHESQSPTFGPGTKVDIK",similar
4,"mAb16: anti-IL-11Rα antibody; VH SEQ ID NO: 223, VL SEQ ID NO: 224; heavy chain Kabat position 31 variant of mAb5 (antibody, V domains shown, mAb16 VH Chain; mAb16 VL Chain, anti-IL-11Rα antibody; heavy chain Kabat position 31 variant of mAb5) VH: EVQLLESGGGLVQPGGSLRLSCAASGFTFSAYSMTWVRQAPGKGLEWVSSIVPYGDLTQYADSVKGRFTISRDNSKNTLYLQMNSLRAEDTAVYYCAKGPGWGSFDLWGRGTLVTVSS VL: DIQMTQSPSSLSASVGDRVTITCQASQDINNYLNWYQQKPGKAPKLLIYDASNLQTGVPSRFSGSGSGTDFTFTISSLQPEDIATYYCQQHESQSPTFGPGTKVDIK",similar
5,"mAb18: anti-IL-11Rα antibody; VH SEQ ID NO: 227, VL SEQ ID NO: 228; heavy chain Kabat position 31 variant of mAb5 (antibody, V domains shown, mAb18 VH Chain; mAb18 VL Chain, anti-IL-11Rα antibody; heavy chain Kabat position 31 variant of mAb5) VH: EVQLLESGGGLVQPGGSLRLSCAASGFTFSEYSMTWVRQAPGKGLEWVSSIVPYGDLTQYADSVKGRFTISRDNSKNTLYLQMNSLRAEDTAVYYCAKGPGWGSFDLWGRGTLVTVSS VL: DIQMTQSPSSLSASVGDRVTITCQASQDINNYLNWYQQKPGKAPKLLIYDASNLQTGVPSRFSGSGSGTDFTFTISSLQPEDIATYYCQQHESQSPTFGPGTKVDIK",decreased
6,"mAb19: anti-IL-11Rα antibody; VH SEQ ID NO: 229, VL SEQ ID NO: 230; heavy chain Kabat position 31 variant of mAb5 (antibody, V domains shown, mAb19 VH Chain; mAb19 VL Chain, anti-IL-11Rα antibody; heavy chain Kabat position 31 variant of mAb5) VH: EVQLLESGGGLVQPGGSLRLSCAASGFTFSFYSMTWVRQAPGKGLEWVSSIVPYGDLTQYADSVKGRFTISRDNSKNTLYLQMNSLRAEDTAVYYCAKGPGWGSFDLWGRGTLVTVSS VL: DIQMTQSPSSLSASVGDRVTITCQASQDINNYLNWYQQKPGKAPKLLIYDASNLQTGVPSRFSGSGSGTDFTFTISSLQPEDIATYYCQQHESQSPTFGPGTKVDIK",similar

# The remaining lines, values ahead:
row,qualitative assessment,Molecule
1,similar,"mAb28: anti-IL-11Rα antibody; VH SEQ ID NO: 247, VL SEQ ID NO: 248; heavy chain Kabat position 31 variant of mAb5 (antibody, V domains shown, mAb28 VH Chain; mAb28 VL Chain, anti-IL-11Rα antibody; heavy chain Kabat position 31 variant of mAb5) VH: EVQLLESGGGLVQPGGSLRLSCAASGFTFSRYSMTWVRQAPGKGLEWVSSIVPYGDLTQYADSVKGRFTISRDNSKNTLYLQMNSLRAEDTAVYYCAKGPGWGSFDLWGRGTLVTVSS VL: DIQMTQSPSSLSASVGDRVTITCQASQDINNYLNWYQQKPGKAPKLLIYDASNLQTGVPSRFSGSGSGTDFTFTISSLQPEDIATYYCQQHESQSPTFGPGTKVDIK"
2,similar,"mAb25: anti-IL-11Rα antibody; VH SEQ ID NO: 241, VL SEQ ID NO: 242; heavy chain Kabat position 31 variant of mAb5 (antibody, V domains shown, mAb25 VH Chain; mAb25 VL Chain, anti-IL-11Rα antibody; heavy chain Kabat position 31 variant of mAb5) VH: EVQLLESGGGLVQPGGSLRLSCAASGFTFSMYSMTWVRQAPGKGLEWVSSIVPYGDLTQYADSVKGRFTISRDNSKNTLYLQMNSLRAEDTAVYYCAKGPGWGSFDLWGRGTLVTVSS VL: DIQMTQSPSSLSASVGDRVTITCQASQDINNYLNWYQQKPGKAPKLLIYDASNLQTGVPSRFSGSGSGTDFTFTISSLQPEDIATYYCQQHESQSPTFGPGTKVDIK"
3,similar,"mAb32: anti-IL-11Rα antibody; VH SEQ ID NO: 255, VL SEQ ID NO: 256; heavy chain Kabat position 31 variant of mAb5 (antibody, V domains shown, mAb32 VH Chain; mAb32 VL Chain, anti-IL-11Rα antibody; heavy chain Kabat position 31 variant of mAb5) VH: EVQLLESGGGLVQPGGSLRLSCAASGFTFSYYSMTWVRQAPGKGLEWVSSIVPYGDLTQYADSVKGRFTISRDNSKNTLYLQMNSLRAEDTAVYYCAKGPGWGSFDLWGRGTLVTVSS VL: DIQMTQSPSSLSASVGDRVTITCQASQDINNYLNWYQQKPGKAPKLLIYDASNLQTGVPSRFSGSGSGTDFTFTISSLQPEDIATYYCQQHESQSPTFGPGTKVDIK"
4,decreased,"mAb26: anti-IL-11Rα antibody; VH SEQ ID NO: 243, VL SEQ ID NO: 244; heavy chain Kabat position 31 variant of mAb5 (antibody, V domains shown, mAb23 VH Chain; mAb26 VL Chaim, anti-IL-11Rα antibody; heavy chain Kabat position 31 variant of mAb5) VH: EVQLLESGGGLVQPGGSLRLSCAASGFTFSNYSMTWVRQAPGKGLEWVSSIVPYGDLTQYADSVKGRFTISRDNSKNTLYLQMNSLRAEDTAVYYCAKGPGWGSFDLWGRGTLVTVSS VL: DIQMTQSPSSLSASVGDRVTITCQASQDINNYLNWYQQKPGKAPKLLIYDASNLQTGVPSRFSGSGSGTDFTFTISSLQPEDIATYYCQQHESQSPTFGPGTKVDIK"
5,decreased,"mAb30: anti-IL-11Rα antibody; VH SEQ ID NO: 251, VL SEQ ID NO: 252; heavy chain Kabat position 31 variant of mAb5 (antibody, V domains shown, mAb30 VH Chain; mAb30 VL Chain, anti-IL-11Rα antibody; heavy chain Kabat position 31 variant of mAb5) VH: EVQLLESGGGLVQPGGSLRLSCAASGFTFSTYSMTWVRQAPGKGLEWVSSIVPYGDLTQYADSVKGRFTISRDNSKNTLYLQMNSLRAEDTAVYYCAKGPGWGSFDLWGRGTLVTVSS VL: DIQMTQSPSSLSASVGDRVTITCQASQDINNYLNWYQQKPGKAPKLLIYDASNLQTGVPSRFSGSGSGTDFTFTISSLQPEDIATYYCQQHESQSPTFGPGTKVDIK"
6,similar,"mAb24: anti-IL-11Rα antibody; VH SEQ ID NO: 239, VL SEQ ID NO: 240; heavy chain Kabat position 31 variant of mAb5 (antibody, V domains shown, mAb24 VH Chain; mAb24 VL Chain, anti-IL-11Rα antibody; heavy chain Kabat position 31 variant of mAb5) VH: EVQLLESGGGLVQPGGSLRLSCAASGFTFSLYSMTWVRQAPGKGLEWVSSIVPYGDLTQYADSVKGRFTISRDNSKNTLYLQMNSLRAEDTAVYYCAKGPGWGSFDLWGRGTLVTVSS VL: DIQMTQSPSSLSASVGDRVTITCQASQDINNYLNWYQQKPGKAPKLLIYDASNLQTGVPSRFSGSGSGTDFTFTISSLQPEDIATYYCQQHESQSPTFGPGTKVDIK"
7,decreased,"mAb27: anti-IL-11Rα antibody; VH SEQ ID NO: 245, VL SEQ ID NO: 246; heavy chain Kabat position 31 variant of mAb5 (antibody, V domains shown, mAb27 VH Chain; mAb27 VL Chain, anti-IL-11Rα antibody; heavy chain Kabat position 31 variant of mAb5) VH: EVQLLESGGGLVQPGGSLRLSCAASGFTFSPYSMTWVRQAPGKGLEWVSSIVPYGDLTQYADSVKGRFTISRDNSKNTLYLQMNSLRAEDTAVYYCAKGPGWGSFDLWGRGTLVTVSS VL: DIQMTQSPSSLSASVGDRVTITCQASQDINNYLNWYQQKPGKAPKLLIYDASNLQTGVPSRFSGSGSGTDFTFTISSLQPEDIATYYCQQHESQSPTFGPGTKVDIK"
